Source: patent US20070244042A1 (University of Texas, published 2007)

T1: E-domain of betaglycan (BGe) (Rattus norvegicus, UniProt P26342 24-409)
T1 construct: also called sRIIIe; sBGe
T1 sequence: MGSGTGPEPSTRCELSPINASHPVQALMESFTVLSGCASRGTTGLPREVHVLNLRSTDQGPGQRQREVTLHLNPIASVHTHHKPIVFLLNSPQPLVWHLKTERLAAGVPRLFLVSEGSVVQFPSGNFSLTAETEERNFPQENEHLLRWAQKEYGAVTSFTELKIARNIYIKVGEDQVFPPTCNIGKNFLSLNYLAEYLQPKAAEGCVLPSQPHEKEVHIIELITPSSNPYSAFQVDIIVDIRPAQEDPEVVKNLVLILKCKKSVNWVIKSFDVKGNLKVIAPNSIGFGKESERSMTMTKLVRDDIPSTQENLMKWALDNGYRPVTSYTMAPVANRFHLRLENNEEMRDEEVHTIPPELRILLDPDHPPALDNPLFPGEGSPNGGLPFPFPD

B1: TGFβ2 (ligand)
chain: ALDAAYCFRNVQDNCCLRPLYIDFKRDLGWKWIHEPKGYNANFCAGACPYLWSSDTQHSRVLSLYNTINPEASASPCCVSQDLEPLTILYYIGKTPKIEQLSNMIVKSCKCS
notes: also called TGFβ2 homodimer; transforming growth factor beta 2
B2: TGFβ type II receptor extracellular domain (sRII) (receptor)
chain: MIPPHVQKSVNNDMIVTDNNGAVKFPQLCKFCDVRFSTCDNQKSCMSNCSITSICEKPQEVCVAVWRKNDENITLETVCHDPKLPYHDFILEDAASPKCIMKEKKKPGETFFMCSCSSDECNDNIIFSEEYNTSNPD
notes: also called recombinant sRII; extracellular domain of RII

Key:
[1] = molecular target: B2; assay: electrophoretic mobility shift, 12% native polyacrylamide gel pH 8.8, Coomassie staining
Description: (§1) Referring now to FIG. 1, binding of the E-domain of betaglycan (BGe) and the TGFβ type II receptor extracellular domain (sRII) to TGFβ2. A. Electrophoretic mobility shift assay in which an increasing amount of sRII has been added to a fixed amount of TGFβ2 and then applied to 12% native polyacryamide gel at pH 8.8. The relative molar amounts of TGFβ2 and sRII used in the assay are indicated above the gel. The protein bands were visualized by Coomassie blue staining. B. Electrophoretic mobility shift assay in which an increasing amount of BGe has been added to a fixed amount of TGFβ2 and then applied to 12% native polyacryamide gel at pH 8.8. The relative molar amounts of TGFβ2 and BGe (sRIIIe) used in the assay are indicated above the gel. The protein bands were visualized by Coomassie blue staining. The arrow labeled BC designates the binary complex formed between TGFβ2 and BGe. C. […] Purified TGFβ2 and BGe have also been applied to the SDS gel as controls. Relative molar amounts are indicated above the gel. The protein bands were visualized by Coomassie blue staining. On the basis of the relative amounts of TGFβ2 and BGe (sRIIIe) in the binary complex, together with the relative band intensities for the TGFβ2 and BGe (sRIIIe) controls, we tentatively conclude that BGe and the TGFβ2 homodimer bind with 1:1 stochiometry.

[2] = molecular target: T1, E-domain of betaglycan (BGe); assay: as above
Description: as §1

| Binder | binding result [1] | binding result [2] |
| --- | --- | --- |
| B1 | no binding | – |
| B2 | – | no binding |
